# According to the supplement of paper PMC7877785:
# ± gives the uncertainty stated by the source.
# Experiment: self-splicing fitness, log relative to wild type (ln ratio); higher = more splicing; Tetrahymena group I intron in knt gene, E. coli kanamycin selection, DiMSum; sequences stand for … in CUCUCU…GGAGGGAAAAGUUAUCAGGCAUGCACCUGGUAGCUAGUCUUUAAACCAAUAGAUUGCAUCGGUUUAAAAGGCAAGACCGUCAAAUUGCGGGAAAGGGGUCAACAGCCGUUCAGUACCAAGUCUCAGGGGAAACUUUGAGAUGGCCUUGCAAAGGGUAUGGUAAUAAGCUGACGGACAUGGUCCUAACCACGCAGCCAAGUCCUAAGUCAACAGAUCUUCUGUUGAUAUGGAUGCAGUUCACAGACUAAAUGUCGGUCGGGGAAGAUGUAUUCUUCUCAUAAGAUAUAGUCGGACCUCUCCUUAAUGGGAGCUAGCGGAUGAAGUGAUGCAACACUGGAGCCGCUGGGAACUAAUUUGUAUGCGAAAGUAUAUUGAUUAGUUUUGGAGUACUCGUGGUCG
# Summary of the method: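 A randomised library covering all eight P1ex-region intron nucleotides was built with the intron in the knt kanamycin-resistance gene on pET-22b(+) and held in E. coli BL21(DE3). Cells were grown overnight at 37°C or 30°C on LB agar, with or without 25 μg/mL kanamycin, plus 100 μg/mL carbenicillin, 50 μM IPTG and 0.2% rhamnose, and pooled colonies were amplicon-sequenced on an Illumina HiSeq 2500. DiMSum fitness is the error-weighted combination of wild-type-normalised replicate fold changes, kanamycin versus none.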
Sequence,self-splicing fitness (ln) (37 °C),self-splicing fitness (ln) (30 °C)
CUCUAGCAAUAUUACGCUCC,-1.03 ± 0.36,–
CUCUAGCAAUAUUACGCUUC,-2.39 ± 0.34,-2.62 ± 0.27
CUCUAGCAAUAUUACGGAGU,-2.61 ± 0.25,-3.04 ± 0.29
CUCUAGCAAUAUUACGGUGG,-2.48 ± 0.21,-2.88 ± 0.15
CUCUAGCAAUAUUACGUAGU,-4.45 ± 0.36,-4.1 ± 0.26
CUCUAGCAAUAUUACGUCUA,-2.88 ± 0.24,-2.31 ± 0.25
CUCUAGCAAUAUUACGUGAA,-3.07 ± 0.25,-3.77 ± 0.21
CUCUAGCAAUAUUACGUGAC,-1.68 ± 0.17,-4.2 ± 0.26
CUCUAGCAAUAUUACGUGCG,-3.7 ± 0.3,-2.61 ± 0.22
CUCUAGCAAUAUUACGUUAU,-2.16 ± 0.25,-3.92 ± 0.4
CUGAAGCAAUAUUACGAAGG,-1.38 ± 0.14,-0.457 ± 0.093
CUGAAGCAAUAUUACGACUA,-0.875 ± 0.21,-1.29 ± 0.16
CUGAAGCAAUAUUACGAUAC,-1.94 ± 0.36,-2.44 ± 0.32
CUGAAGCAAUAUUACGAUCU,-3.2 ± 0.28,-3.3 ± 0.16
CUGAAGCAAUAUUACGAUGC,-2.86 ± 0.33,-3.46 ± 0.21
CUGAAGCAAUAUUACGCAAC,-2.22 ± 0.35,–
CUGAAGCAAUAUUACGCAUG,0.071 ± 0.1,-0.485 ± 0.063
CUGAAGCAAUAUUACGCCCA,–,-2.13 ± 0.34
CUGAAGCAAUAUUACGCCCG,0.309 ± 0.24,-0.0662 ± 0.23
CUGAAGCAAUAUUACGCCCU,-2.86 ± 0.47,-3.03 ± 0.22
CUGAAGCAAUAUUACGCCGA,–,-1.44 ± 0.22
CUGAAGCAAUAUUACGCGAA,-0.319 ± 0.18,-3.12 ± 0.32

Sequence,self-splicing fitness (ln) (37 °C),self-splicing fitness (ln) (30 °C)
CUGAAGCAAUAUUACGCGCU,–,-3.35 ± 0.29
CUGAAGCAAUAUUACGCUUU,-3.78 ± 0.42,-3.4 ± 0.31
CUGAAGCAAUAUUACGGAAU,-1.96 ± 0.15,-3.01 ± 0.15
CUGAAGCAAUAUUACGGCUC,-2.52 ± 0.25,-2.75 ± 0.16
CUGAAGCAAUAUUACGUACA,-1.39 ± 0.25,-2.36 ± 0.21
CUGAAGCAAUAUUACGUGGA,-2.63 ± 0.27,-4.08 ± 0.3
CUGAAGCAAUAUUACGUGUA,-2.12 ± 0.2,-4.08 ± 0.24
CUGAAGCAAUAUUACGUUCC,-2.57 ± 0.3,–
CUGCAGCAAUAUUACGAACA,-1.49 ± 0.14,-3.3 ± 0.24
CUGCAGCAAUAUUACGAAGG,-1.06 ± 0.16,-2.05 ± 0.13
CUGCAGCAAUAUUACGAAUA,-1.3 ± 0.2,-1.74 ± 0.45
CUGCAGCAAUAUUACGACAU,-0.363 ± 0.032,-1.04 ± 0.012
CUGCAGCAAUAUUACGACCC,-1.05 ± 0.48,-3.76 ± 0.36
CUGCAGCAAUAUUACGAGAG,-2.96 ± 0.22,-1.64 ± 0.12
CUGCAGCAAUAUUACGAGCA,-2.38 ± 0.22,-3.11 ± 0.21
CUGCAGCAAUAUUACGAUGG,-1.18 ± 0.1,-1.7 ± 0.08
CUGCAGCAAUAUUACGCACG,-0.409 ± 0.069,-1.03 ± 0.047
CUGCAGCAAUAUUACGCAUU,-2.21 ± 0.23,-4.22 ± 0.2
CUGCAGCAAUAUUACGCGAA,-2.52 ± 0.27,-3.31 ± 0.33
CUGCAGCAAUAUUACGCGCG,-0.249 ± 0.087,-1.6 ± 0.075
CUGCAGCAAUAUUACGCGGU,-2.89 ± 0.23,-2.5 ± 0.15
CUGCAGCAAUAUUACGGCGC,-2.75 ± 0.4,-3.82 ± 0.3
